Here are results for 14 molecules from patent US20120258108A1 (AbbVie / Abbott, published 2012).

For one test, the target named is Recombinant Human DLL4 (human, UniProt Q9NR61 27-524). Nature of the test: SPR (BIACORE). The protocol: (§1) The BIACORE assay (Biacore, Inc, Piscataway, N.J.) determines the affinity of antibodies or DVD-Ig with kinetic measurements of on-rate and off-rate constants. Binding of antibodies or DVD-Ig to a target antigen (for example, a purified recombinant target antigen) was determined by surface plasmon resonance-based measurements with a Biacore® 1000 or 3000 instrument (Biacore® AB, Uppsala, Sweden) using running HBS-EP (10 mM HEPES [pH 7.4], 150 mM NaCl, 3 mM EDTA, and 0.005% surfactant P20) at 25° C. All chemicals were obtained from Biacore® AB (Uppsala, Sweden) or otherwise from a different source as described in the text. For example, approximately 5000 RU of goat anti-mouse IgG, (Fcγ), fragment specific polyclonal antibody (Pierce Biotechnology Inc, Rockford, Ill.) diluted in 10 mM sodium acetate (pH 4.5) is directly immobilized across a CM5 research grade biosensor chip using a standard amine coupling kit according to manufacturer's instructions and procedures at 25 μg/ml. Unreacted moieties on the biosensor surface are blocked with ethanolamine. Modified carboxymethyl dextran surface in flowcell 2 and 4 is used as a reaction surface. Unmodified carboxymethyl dextran without goat anti-mouse IgG in flow cell 1 and 3 is used as the reference surface. For kinetic analysis, rate equations derived from the 1:1 Langmuir binding model are fitted simultaneously to association and dissociation phases of all eight injections (using global fit analysis) with the use of Biaevaluation 4.0.1 software. Purified antibodies or DVD-Ig are diluted in HEPES-buffered saline for capture across goat anti-mouse IgG specific reaction surfaces. Antibodies or DVD-Ig to be captured as a ligand (25 μg/ml) are injected over reaction matrices at a flow rate of 5 μl/min. The association and dissociation rate constants, kₒₙ (M⁻¹ s⁻¹) and koff (s⁻¹) are determined under a continuous flow rate of 25 μl/min. Rate constants are derived by making kinetic binding measurements at different antigen concentrations ranging from 10-200 nM. The equilibrium dissociation constant (M) of the reaction between antibodies or DVD-Igs and the target antigen is then calculated from the kinetic rate constants by the following formula: KD=koff/kₒₙ. Binding is recorded as a function of time and kinetic rate constants are calculated.

Test [1] deals with Recombinant Human VEGF 165 (human, UniProt P15692-4 27-191). Nature of the test: SPR (BIACORE). The procedure: as §1
Background: In SPR one partner is held on a chip, and binding of the other changes the refractive index at the surface.

Recombinant Human VEGF 165, sequence (P15692 other isoform, or with tags, fused parts or gaps limits assumed): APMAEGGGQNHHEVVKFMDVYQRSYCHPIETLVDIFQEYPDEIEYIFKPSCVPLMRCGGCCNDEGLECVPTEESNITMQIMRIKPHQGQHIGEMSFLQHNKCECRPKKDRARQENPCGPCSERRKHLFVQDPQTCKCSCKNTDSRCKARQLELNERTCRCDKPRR
Recombinant Human DLL4, sequence (Q9NR61 27-524 limits assumed): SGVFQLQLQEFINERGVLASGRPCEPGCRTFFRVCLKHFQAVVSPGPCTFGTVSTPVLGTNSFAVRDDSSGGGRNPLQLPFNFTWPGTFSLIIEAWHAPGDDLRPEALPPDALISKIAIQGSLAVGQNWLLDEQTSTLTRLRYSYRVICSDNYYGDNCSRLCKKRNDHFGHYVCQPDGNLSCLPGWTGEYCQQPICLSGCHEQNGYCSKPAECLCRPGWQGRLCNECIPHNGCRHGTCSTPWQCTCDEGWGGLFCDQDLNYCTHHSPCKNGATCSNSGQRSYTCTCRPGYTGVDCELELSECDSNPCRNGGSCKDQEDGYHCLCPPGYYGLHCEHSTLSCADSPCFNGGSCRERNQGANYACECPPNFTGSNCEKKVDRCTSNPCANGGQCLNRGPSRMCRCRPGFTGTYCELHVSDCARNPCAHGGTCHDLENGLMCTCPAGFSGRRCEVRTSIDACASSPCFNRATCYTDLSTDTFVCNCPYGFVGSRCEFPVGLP

B1: AB287 (antibody, human IgG1, kappa, V domains shown)
VH: EVTLRESGPALVKPTQTLTLTCTVSGGSISSSSYYWGWIRQPPGKGLEWIGDIYYTGSTYYNPSLKSRVTISVDTSKNQFVLTMTNMDPVDTATYYCARQALAMGGGSDKWGQGTTVTVSS
VL: DYVLTQSPDSLAVSLGERATINCSGQRLGDKYASWYQQKPGQSPKLVIYEDSKRPSGIPDRFSGSNSGDDATLTISSLQAEDVAVYYCQAWDRDTGVFGGGTKVEIKR
notes: CDR-grafted parent antibody
Usually Kd stands for a measure of binding affinity in units of concentration. The koff is a measure of how fast the partners let go of each other. As usually defined, the kon is a measure of how fast the partners come together. Turning to B1, in the test with Recombinant Human DLL4, the Kd turned out to be 1.5 nM, the koff is 0.00012 s⁻¹ and the kon was determined as 84000 M⁻¹ s⁻¹.

B2: AB316 (antibody, human IgG1, kappa, V domains shown)
VH: EVQLVESGGGLVQPANSLKLSCAVSGGSISSSSYYWGWIRQSPKKGLEWIGDIYYTGSTYYNPSLKSRVTISVDTAKNTFYLQMDSLRSEDTATYYCARQALAMGGGSDKWGQGVLVTVSS
VL: DYRLTQSPASLSASLGETVNIECSGQRLGDKYASWYQQKPGKSPQLVIYEDSKRPSGIPSRFSGSNSGDQASLKINSLQSEDVATYYCQAWDRDTGVFGGGTKLELKR
notes: CDR-grafted parent antibody
As for B2, in the test with Recombinant Human DLL4, the Kd turned out to be 1 nM, the koff was found to be 9.2e-05 s⁻¹ and the kon is 89000 M⁻¹ s⁻¹.

B3: AB334 (antibody, human IgG1, kappa, V domains shown)
VH: QVQLQQSGAELMKPGASVKLSCKATGFTFSNFPMAWVKQRPGHGLEWVATISSSDGTTYYRDSVKGKFTITRDNSSNTLYIQLISLTTEDSAIYYCARGYYNSPFAYWGQGTLLTVSA
VL: DILMTQSPAILSVSPGERVSFSCRASEDIYSNLAWYQQRTNGAPRLLIYDTNNLADGVPSRFSGGGSGTDFTLSINSVESEDIADYYCQQYNNYPPTFGAGTKLELKR
notes: CDR-grafted parent antibody
For the molecule B3, in the test with Recombinant Human DLL4, the Kd was 14 nM, the koff was 0.0055 s⁻¹ and the kon is 390000 M⁻¹ s⁻¹.

B4: DVD1731 (bispecific antibody, human IgG1, kappa)
heavy: not shown
light: DIQMTQSPSSLSASVGDRVTITCRASEDIYSNLAWYQQKPGKAPKLLIYDTNNLADGVPSRFSGSGSGTDFTLTISSLQPEDVATYYCQQYNNYPPTFGQGTKVEIKRTVAAPDIRMTQSPASLSASLGETVNIECSASQDISNYLNWYQQKPGKAPQVLIYFTSSLHSGVPSRFSGSGSGTQFSLKINSLQSEDVATYYCQQYSTVPWTFGGGTKLELKRTVAAPSVFIFPPSDEQLKSGTASVVCLLNNFYPREAKVQWKVDNALQSGNSQESVTEQDSKDSTYSLSSTLTLSKADYEKHKVYACEVTHQGLSSPVTKSFNRGEC
notes: DVD-Ig
With B4, in the test with Recombinant Human DLL4, the dissociation constant (Kd) came to 22 nM, the koff came out at 0.0028 s⁻¹ and the kon came to 120000 M⁻¹ s⁻¹. Further, in test [1], the Kd was determined as 0.5 nM, the koff was 4.5e-05 s⁻¹ and the kon came out at 89000 M⁻¹ s⁻¹.

B5: AB289 (antibody, human IgG1, kappa, V domains shown)
VH: EVQLVQSGTEVKKPGESLKISCKASGFTFSNFPMAWVRQMPGKGLEWVATISSSDGTTYYRDSVKGQFTISRDNSFNTLFLQWSSLKASDTAMYYCARGYYNSPFAYWGQGTMVTVSS
VL: EIVMTQSPATLSVSPGERATLSCRASEDIYSNLAWYQQKPGQAPRLLIYDTNNLADDVPARFSGSGSGTEFTLTISSLQSEDFAVYYCQQYNNYPPTFGQGTRLEIKR
notes: CDR-grafted parent antibody
B5: in the test with Recombinant Human DLL4, the Kd turned out to be 21 nM, the koff amounted to 0.0055 s⁻¹ and the kon was found to be 260000 M⁻¹ s⁻¹.

B6: AB290 (antibody, human IgG1, kappa, V domains shown)
VH: EVTLRESGPALVKPTQTLTLTCTASGFTFSNFPMAWVRQPPGKGLEWVATISSSDGTTYYRDSVKGRFTISRDNSKNQLVLTMTNMDPVDTATYYCARGYYNSPFAYWGQGTTVTVSS
VL: DIVMTQSPDSLAVSLGERATINCRASEDIYSNLAWYQQKPGQAPKLLIYDTNNLADGVPDRFSGSGSGTDFTLTISSLQAEDVAVYYCQQYNNYPPTFGGGTKVEIKR
notes: CDR-grafted parent antibody
For B6, in the test with Recombinant Human DLL4, the Kd amounted to 20 nM, the koff amounted to 0.0039 s⁻¹ and the kon was determined as 200000 M⁻¹ s⁻¹.

B7: AB299 (antibody, human IgG1, kappa, V domains shown)
VH: EVQLVESGGGLVQPGGSLRLSCAASGFTFSNFPMAWVRQAPGKGLEWVATISSSDGTTYYRDSVKGRFTISRDNSKNTLYLQMNSLRAEDTAVYYCARGYYNSPFAYWGQGTLVTVSS
VL: DIQMTQSPSSLSASVGDRVTITCRASEDIYSNLAWYQQKPGKAPKLLIYDTNNLADGVPSRFSGSGSGTDFTLTISSLQPEDFATYYCQQYNNYPPTFGQGTKVEIKR
notes: CDR-grafted parent antibody
On to B7, for which, in the test with Recombinant Human DLL4, the Kd worked out at 24 nM, the koff is 0.0039 s⁻¹ and the kon worked out at 160000 M⁻¹ s⁻¹.

B8: AB319 (antibody, human IgG1, kappa, V domains shown)
VH: EVQLVESGGGLVQPANSLKLSCAASGFTFSNFPMAWVRQSPKKGLEWVATISSSDGTTYYRDSVKGRFTISRDNAKNTLYLQMDSLRSEDTATYYCARGYYNSPFAYWGQGVLVTVSS
VL: DIRMTQSPASLSASLGETVNIECRASEDIYSNLAWYQQKPGKAPQLLIYDTNNLADGVPSRFSGSGSGTQFSLKINSLQSEDVATYYCQQYNNYPPTFGGGTKLELKR
notes: CDR-grafted parent antibody
Turning to B8, in the test with Recombinant Human DLL4, the Kd is 20 nM, the koff amounted to 0.002 s⁻¹ and the kon was found to be 100000 M⁻¹ s⁻¹.

B9: AB309 (antibody, human IgG1, kappa, V domains shown)
VH: EVQLVESGGGLVQPGRSLRLSCAASGFTFSNFPMAWVRQAPGKGLEWVATISSSDGTTYYRDSVKGRFTISRDNAKNSLYLQMNSLRAEDTAVYYCARGYYNSPFAYWGQGTLVTVSS
VL: DIQMTQSPSSLSASVGDRVTITCRASEDIYSNLAWYQQKPGKAPKLLIYDTNNLADGVPSRFSGSGSGTDFTLTISSLQPEDVATYYCQQYNNYPPTFGQGTKVEIKR
notes: CDR-grafted parent antibody
For B9, in the test with Recombinant Human DLL4, the Kd came to 22 nM, the koff is 0.0028 s⁻¹ and the kon was determined as 130000 M⁻¹ s⁻¹.

B10: AB307 (antibody, human IgG1, kappa, V domains shown)
VH: EVQLLESGGGLVQPGGSLRLSCAVSGGSISSSSYYWGWIRQAPGKGLEWIGDIYYTGSTYYNPSLKSRVTISVDTSKNTFYLQMNSLRAEDTAVYYCARQALAMGGGSDKWGQGTLVTVSS
VL: EYVLTQSPGTLSLSPGERATLSCSGQRLGDKYASWYQQKPGQSPRLVIYEDSKRPSGIPDRFSGSNSGDDATLTISRLEPEDFAVFYCQAWDRDTGVFGQGTKVEIKR
notes: CDR-grafted parent antibody
For B10, in the test with Recombinant Human DLL4, the Kd amounted to 1 nM, the koff came to 9.5e-05 s⁻¹ and the on-rate constant (kon) was determined as 93000 M⁻¹ s⁻¹.

B11: AB306 (antibody, human IgG1, kappa, V domains shown)
VH: EVQLVESGGGLVQPGRSLRLSCAVSGGSISSSSYYWGWIRQAPGKGLEWIGDIYYTGSTYYNPSLKSRVTISVDTAKNSFYLQMNSLRAEDTAVYYCARQALAMGGGSDKWGQGTLVTVSS
VL: DYQLTQSPSSLSASVGDRVTITCSGQRLGDKYASWYQQKPGKSPKLVIYEDSKRPSGIPSRFSGSNSGDDATLTISSLQPEDVATYYCQAWDRDTGVFGQGTKVEIKR
notes: CDR-grafted parent antibody
Regarding B11, in the test with Recombinant Human DLL4, the dissociation constant (Kd) came out at 2.2 nM, the dissociation rate constant (koff) worked out at 0.00015 s⁻¹ and the kon turned out to be 68000 M⁻¹ s⁻¹.

B12: AB331 (antibody, human IgG1, kappa, V domains shown)
VH: QVQLQQSGAELMKPGASVKLSCKVTGGSISSSSYYWGWIKQRPGHGLEWIGDIYYTGSTYYNPSLKSKVTITVDTSSNTFYIQLISLTTEDSAIYYCARQALAMGGGSDKWGQGTLLTVSA
VL: DYLLTQSPAILSVSPGERVSFSCSGQRLGDKYASWYQQRTNGSPRLVIYEDSKRPSGIPSRFSGGNSGDDATLSINSVESEDIADYYCQAWDRDTGVFGAGTKLELKR
notes: CDR-grafted parent antibody
With B12, in the test with Recombinant Human DLL4, the Kd amounted to 2.3 nM, the koff turned out to be 0.00018 s⁻¹ and the kon came out at 76000 M⁻¹ s⁻¹.

B13: DVD1713 (bispecific antibody, human IgG1, kappa)
heavy: not shown
light: DIVMTQSPDSLAVSLGERATINCRASEDIYSNLAWYQQKPGQAPKLLIYDTNNLADGVPDRFSGSGSGTDFTLTISSLQAEDVAVYYCQQYNNYPPTFGGGTKVEIKRTVAAPEIVMTQSPATLSVSPGERATLSCSASQDISNYLNWYQQKPGQAPRVLIYFTSSLHSDVPARFSGSGSGTEFTLTISSLQSEDFAVYYCQQYSTVPWTFGQGTRLEIKRTVAAPSVFIFPPSDEQLKSGTASVVCLLNNFYPREAKVQWKVDNALQSGNSQESVTEQDSKDSTYSLSSTLTLSKADYEKHKVYACEVTHQGLSSPVTKSFNRGEC
notes: DVD-Ig
As to B13, in the test with Recombinant Human DLL4, the Kd was 31 nM, the koff turned out to be 0.0029 s⁻¹ and the kon is 92000 M⁻¹ s⁻¹. In test [1], the equilibrium dissociation constant (Kd) is 0.1 nM, the koff stood at 7.7e-05 s⁻¹ and the kon is 760000 M⁻¹ s⁻¹.

B14: AB285 (antibody, human IgG1, kappa, V domains shown)
VH: EVTLRESGPALVKPTQTLTLTCTASGYTFTNYGMNWVRQPPGKGLEWVGWINTYTGEPTYAADFKRRFTFSLDTSKSQAVLTMTNMDPVDTATYYCAKYPHYYGSSHWYFDVWGQGTTVTVSS
VL: DIVMTQSPDSLAVSLGERATINCSASQDISNYLNWYQQKPGQAPKVLIYFTSSLHSGVPDRFSGSGSGTDFTLTISSLQAEDVAVYYCQQYSTVPWTFGGGTKVEIKR
notes: CDR-grafted parent antibody; also called VEGF (AB057)
As to B14, in test [1], the Kd is less than 0.001 nM, the koff was less than 1e-06 s⁻¹ and the kon worked out at 1e+06 M⁻¹ s⁻¹.
